Some results are limits rather than exact numbers.

The assay deals with chimeric H5 Env: Env_(HXB2) with the V3 loop of Env_(SF162) (HIV-1 strain HXB2 | HIV-1 strain SF162) (UniProt P04578).

Consider “Human soluble CD4-183 (sCD4-183) two-domain protein (domain or fragment)”, for which the inhibition by sCD4 of the infectivity of HIV-1 pseudotyped with Env (titration, Fig 3A); loss of potency against H4 Env is more than 50 fold and the sCD4-induced gp120 shedding from Env-expressing HEK293T cells (Fig 3B); shift of the sCD4 dependence against H4 Env is more than 10 fold.

(Values after PMC9154124.)
